The values below come from patent US20230056336A1 (KYVERNA THERAPEUTICS, published 2023).

Numbering of substitutions follows the chain as printed. Numbers in names are those of the source.

The chains are these.
B1: CD25 L2F mutant (CD25-Fc) (Fc fusion)
chain: EFCDDDPPEIPHATFKAMAYKEGTMLNCECKRGFRRIKSGSLYMLCTGNSSHSSWDNQCQCTSSATRNTTKQVTPQPEEQKERKTTEMQSPMQPVDQASLPGHCREPPPWENEATERIYHFVVGQMVYYQCVQGYRALHRGPAESVCKMTHGKTRWTQPQLICTGEMETSQFPGEEKPQASPEGRPESETSCLVTTTDFQIQTEMAATMETSIFTTEYQ
notes: not shown: Fc part of CD25-Fc
B2: CD25 Y43R mutant (CD25-Fc) (Fc fusion)
chain: B1 chain with F2L, Y43R
notes: not shown: Fc part of CD25-Fc
B3: CD25 L42W mutant (CD25-Fc) (Fc fusion)
chain: B1 chain with F2L, L42W
notes: not shown: Fc part of CD25-Fc
B4: CD25 L42A mutant (CD25-Fc) (Fc fusion)
chain: B1 chain with F2L, L42A
notes: not shown: Fc part of CD25-Fc
B5: CD25 S41D mutant (CD25-Fc) (Fc fusion)
chain: B1 chain with F2L, S41D
notes: not shown: Fc part of CD25-Fc
B6: CD25 S41Q mutant (CD25-Fc) (Fc fusion)
chain: B1 chain with F2L, S41Q
notes: not shown: Fc part of CD25-Fc
B7: CD25 L42V mutant (CD25-Fc) (Fc fusion)
chain: B1 chain with F2L, L42V
notes: not shown: Fc part of CD25-Fc
B8: CD25 S41E mutant (CD25-Fc) (Fc fusion)
chain: B1 chain with F2L, S41E
notes: not shown: Fc part of CD25-Fc
B9: CD25 L2I mutant (CD25-Fc) (Fc fusion)
chain: B1 chain with F2I
notes: not shown: Fc part of CD25-Fc
B10: CD25 T47N mutant (CD25-Fc) (Fc fusion)
chain: B1 chain with F2L, T47N
notes: not shown: Fc part of CD25-Fc
B11: CD25 L42Y mutant (CD25-Fc) (Fc fusion)
chain: B1 chain with F2L, L42Y
notes: not shown: Fc part of CD25-Fc
B12: CD25 L42I mutant (CD25-Fc) (Fc fusion)
chain: B1 chain with F2L, L42I
notes: not shown: Fc part of CD25-Fc
B13: CD25 T47S mutant (CD25-Fc) (Fc fusion)
chain: B1 chain with F2L, T47S
notes: not shown: Fc part of CD25-Fc
B14: CD25 L2Y mutant (CD25-Fc) (Fc fusion)
chain: B1 chain with F2Y
notes: not shown: Fc part of CD25-Fc
B15: CD25 L42G mutant (CD25-Fc) (Fc fusion)
chain: B1 chain with F2L, L42G
notes: not shown: Fc part of CD25-Fc
B16: CD25 S41N mutant (CD25-Fc) (Fc fusion)
chain: B1 chain with F2L, S41N
notes: not shown: Fc part of CD25-Fc
B17: CD25 T47D mutant (CD25-Fc) (Fc fusion)
chain: B1 chain with F2L, T47D
notes: not shown: Fc part of CD25-Fc
B18: CD25 L42F mutant (CD25-Fc) (Fc fusion)
chain: B1 chain with F2L, L42F
notes: not shown: Fc part of CD25-Fc

T1 sequence (VH, as listed by the source limits assumed, chain 1 of 2): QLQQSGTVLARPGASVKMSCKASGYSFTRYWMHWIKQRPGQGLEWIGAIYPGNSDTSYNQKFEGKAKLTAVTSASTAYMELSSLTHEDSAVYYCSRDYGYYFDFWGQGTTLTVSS
T1 sequence (VL, as listed by the source limits assumed, chain 2 of 2): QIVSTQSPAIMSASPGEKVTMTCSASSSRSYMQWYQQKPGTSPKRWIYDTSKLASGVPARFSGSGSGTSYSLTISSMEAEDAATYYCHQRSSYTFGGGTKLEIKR

The experiment has as its target T1, basiliximab fab.
T1 construct: The assay used a Fab of basiliximab; Chimeric antibody: human IgG1 constant, mouse variable domains
The experiment in a line: BLI; CD25-Fc on anti-hFc biosensor, basiliximab Fab in solution; global 1:1 fit.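 Also: biolayer interferometry signals normalized against a reference probe and smoothed with a Savitzky-Golay filter before the global fit.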 A general note: In BLI a coated tip is dipped into the sample, and binding shifts an interference pattern.
Procedure: Briefly, binding affinity (KD) of CD25 mutants from Table 1 was measured using biolayer interferometry. […] Experimental data was normalized to a reference probe and high-frequency noise was removed by Savitzky-Golay filtering. On and off-rate constants were determined using a globally fitted 1:1 binding model.
What is called Kd is a measure of binding affinity in units of concentration. By koff is commonly meant the first-order rate constant of dissociation. Higher therefore signals a short-lived complex. What is called kon is a measure of how fast the partners come together. Read a low kon as slow association. B1 returned a Kd of 1.07 nM, a koff of 0.00252 s⁻¹ and a kon of 2.36e+06 M⁻¹ s⁻¹.

The molecule B2 had a Kd of 1.39 nM, a koff of 0.000399 s⁻¹ and a kon of 236000 M⁻¹ s⁻¹.

The molecule B3 showed a Kd of 1.04 nM, a koff of 0.000201 s⁻¹ and a kon of 194000 M⁻¹ s⁻¹.

For B4, the Kd amounted to 0.242 nM, the koff was 2.49e-05 s⁻¹ and the kon amounted to 103000 M⁻¹ s⁻¹.

In the case of B5, the Kd was found to be 6.49 nM, the koff stood at 0.00708 s⁻¹ and the kon turned out to be 1.09e+06 M⁻¹ s⁻¹.

In the case of B6, the affinity, expressed as Kd, was 5.25 nM; the koff stood at 0.00512 s⁻¹; the kon was 975000 M⁻¹ s⁻¹.

B7: the Kd turned out to be 3.93 nM, the koff amounted to 0.000748 s⁻¹ and the kon is 190000 M⁻¹ s⁻¹.

For the molecule B8, the Kd stood at 6.08 nM, the koff was determined as 0.00719 s⁻¹ and the kon stood at 1.18e+06 M⁻¹ s⁻¹.

In turn, B9 gave a Kd of 3.46 nM, a koff of 0.000734 s⁻¹ and a kon of 212000 M⁻¹ s⁻¹.

Turning to B10, the affinity, expressed as Kd, was 12.8 nM; the koff came out at 0.00776 s⁻¹; the kon stood at 608000 M⁻¹ s⁻¹.

B11 had a Kd of 1.75 nM, a koff of 0.000325 s⁻¹ and a kon of 186000 M⁻¹ s⁻¹.

Regarding B12, binding was characterised by a dissociation constant (Kd) of 23.3 nM, the koff amounted to 0.0116 s⁻¹ and the kon amounted to 499000 M⁻¹ s⁻¹.

On to B13, for which the Kd is 4.49 nM, the koff amounted to 0.00588 s⁻¹ and the kon was 1.31e+06 M⁻¹ s⁻¹.

The molecule B14 returned a Kd of 1.51 nM, a koff of 0.00263 s⁻¹ and a kon of 1.75e+06 M⁻¹ s⁻¹.

Consider B15, for which the Kd was determined as 1.14 nM, the koff is 0.000152 s⁻¹ and the kon was 133000 M⁻¹ s⁻¹.

B16 registered a Kd of 3.85 nM, a koff of 0.00707 s⁻¹ and a kon of 1.84e+06 M⁻¹ s⁻¹.

As to B17, binding was put at a Kd of 3.66 nM, the koff turned out to be 0.00787 s⁻¹ and the kon came out at 2.15e+06 M⁻¹ s⁻¹.

In turn, B18 gave a Kd of 7.65 nM, a koff of 0.000772 s⁻¹ and a kon of 101000 M⁻¹ s⁻¹.
